The values below come from patent US20110055942A1.

The target of the assay is T1, BMPR-1A receptor extra cellular domain (ECD), P36894.
T1 chain: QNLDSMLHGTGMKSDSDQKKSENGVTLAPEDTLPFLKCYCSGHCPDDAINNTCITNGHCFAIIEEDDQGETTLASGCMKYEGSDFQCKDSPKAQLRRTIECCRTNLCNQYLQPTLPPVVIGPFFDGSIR
Briefly: radio-ligand competition: cold TDF-1 displacing 125I-labeled TDF-1 from immobilized BMPR-1A ECD. The settings on record: remark: other sources report otherwise.

B1: TDF-1 (BMP-7 or OP-1), P18075 293-431 (ligand, UniProt P18075 293-431, looked up)
chain: STGSKQRSQNRSKTPKNQEALRMANVAENSSSDQRQACKKHELYVSFRDLGWQDWIIAPEGYAAYYCEGECAFPLNSYMNATNHAIVQTLVHFINPETVPKPCCAPTQLNAISVLYFDDSSNVILKKYRNMVVRACGCH
For B1, the ED50 was 6.5 nM.
